Data on three substances can be found in paper PMC9588060.

By EC50 is commonly meant the concentration that produces a half-maximal response.

In experiment [1] the target is PlGF (UniProt P49763). The experiment in a line: ELISA. The settings on record: Fc fusion. In general terms: An ELISA detects its analyte on a solid surface through an enzyme-linked reagent.
Experiment [2] deals with hVEGFA165 (human) (UniProt P15692). In words: ELISA. As to conditions: Fc fusion.
For experiment [3], the target named is PD-L1 (coated in the ELISA) (not stated (human or mouse PD-L1 coated)) (UniProt Q9NZQ7). The experiment in a line: ELISA; human PD-L1.
Chain of PD-L1 (coated in the ELISA) (not stated (human or mouse PD-L1 coated)) (Q9NZQ7 19-290): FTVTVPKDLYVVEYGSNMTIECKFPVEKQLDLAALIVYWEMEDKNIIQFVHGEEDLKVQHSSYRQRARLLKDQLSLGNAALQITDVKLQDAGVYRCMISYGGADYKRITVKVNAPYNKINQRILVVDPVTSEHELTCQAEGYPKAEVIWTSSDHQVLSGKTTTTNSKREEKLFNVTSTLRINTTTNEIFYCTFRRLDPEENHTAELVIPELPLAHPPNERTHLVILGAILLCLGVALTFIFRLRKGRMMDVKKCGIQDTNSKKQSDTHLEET
For experiment [4] the target is unchanged. In words: ELISA; mouse PD-L1. The settings on record: Fc fusion.

Chain of Ate-Grab (P17948 whole entry, looked up): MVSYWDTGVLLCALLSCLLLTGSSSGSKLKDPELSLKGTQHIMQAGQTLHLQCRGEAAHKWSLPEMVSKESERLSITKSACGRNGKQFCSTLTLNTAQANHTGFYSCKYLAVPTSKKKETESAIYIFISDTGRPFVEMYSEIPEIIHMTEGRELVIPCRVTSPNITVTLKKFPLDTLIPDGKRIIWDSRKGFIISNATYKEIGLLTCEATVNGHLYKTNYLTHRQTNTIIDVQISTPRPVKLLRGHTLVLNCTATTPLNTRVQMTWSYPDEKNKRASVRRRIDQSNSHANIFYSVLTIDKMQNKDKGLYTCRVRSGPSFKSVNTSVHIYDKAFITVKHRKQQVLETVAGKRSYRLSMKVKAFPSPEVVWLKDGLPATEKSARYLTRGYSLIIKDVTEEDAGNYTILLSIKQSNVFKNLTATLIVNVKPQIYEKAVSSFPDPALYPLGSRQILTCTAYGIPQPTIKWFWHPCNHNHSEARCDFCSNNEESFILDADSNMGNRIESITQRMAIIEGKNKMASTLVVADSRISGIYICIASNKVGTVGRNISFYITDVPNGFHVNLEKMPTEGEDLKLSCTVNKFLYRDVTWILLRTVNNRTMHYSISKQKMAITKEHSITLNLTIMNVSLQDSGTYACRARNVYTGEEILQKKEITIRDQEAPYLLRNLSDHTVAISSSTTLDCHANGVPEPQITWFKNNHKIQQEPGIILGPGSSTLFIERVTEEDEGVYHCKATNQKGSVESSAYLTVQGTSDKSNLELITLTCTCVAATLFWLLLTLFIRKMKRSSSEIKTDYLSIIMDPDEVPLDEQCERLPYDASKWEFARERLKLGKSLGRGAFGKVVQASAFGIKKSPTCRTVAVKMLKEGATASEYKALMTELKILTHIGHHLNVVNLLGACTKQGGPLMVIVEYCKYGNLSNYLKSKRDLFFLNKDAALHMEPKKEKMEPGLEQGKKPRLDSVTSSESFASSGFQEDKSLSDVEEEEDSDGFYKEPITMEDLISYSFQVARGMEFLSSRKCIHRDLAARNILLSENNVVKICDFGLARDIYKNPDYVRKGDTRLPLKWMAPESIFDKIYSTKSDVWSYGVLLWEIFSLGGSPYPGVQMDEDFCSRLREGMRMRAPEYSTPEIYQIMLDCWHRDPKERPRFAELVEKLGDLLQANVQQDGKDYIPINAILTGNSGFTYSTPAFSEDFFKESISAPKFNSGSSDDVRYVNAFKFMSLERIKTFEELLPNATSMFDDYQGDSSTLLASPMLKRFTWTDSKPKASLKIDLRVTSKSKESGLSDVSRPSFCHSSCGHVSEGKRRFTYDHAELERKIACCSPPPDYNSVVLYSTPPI
Chain of hVEGFA165 (human) (P15692 other isoform, or with tags, fused parts or gaps): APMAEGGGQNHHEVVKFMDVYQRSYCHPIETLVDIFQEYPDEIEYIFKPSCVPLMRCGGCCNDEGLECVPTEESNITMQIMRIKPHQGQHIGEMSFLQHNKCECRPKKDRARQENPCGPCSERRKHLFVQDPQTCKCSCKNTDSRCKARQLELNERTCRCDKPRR
Chain of PlGF (P49763 19-221): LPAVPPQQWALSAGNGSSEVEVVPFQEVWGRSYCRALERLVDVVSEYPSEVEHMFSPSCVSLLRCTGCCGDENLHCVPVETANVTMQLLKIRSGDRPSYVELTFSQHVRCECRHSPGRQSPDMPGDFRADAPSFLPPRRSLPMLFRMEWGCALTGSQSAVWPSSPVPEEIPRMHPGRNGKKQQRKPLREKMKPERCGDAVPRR
Chain of VEGF-Grab (P17948 whole entry, looked up): as the sequence (P17948 whole entry, looked up) above

With VEGF-Grab (from UniProt P17948), the values for the half-maximal effective concentration (EC50) in experiment [1] and in experiment [2] were 0.619 nM and 0.686 nM, respectively.

Consider Atezolizumab, for which the half-maximal effective concentration (EC50) in experiment [3] is 0.107 nM.

Consider Ate-Grab (from UniProt P17948), for which the EC50 in experiment [1] was found to be 0.929 nM; in experiment [2], 0.652 nM; in experiment [3] (Fc fusion), 0.222 nM; in experiment [4] it was 0.374 nM.
